The values that follow come from patent US20100173430A1 (KOREAN RESEARCH INSTITUTE OF BIOSCIENCE AND BIOTECHNOLOGY, published 2010).

Test [1] addresses T1, anti-human Kallikrein 3/PSA antibody (R&D systems).
T1 construct: also called antibody against PSA
In words: SPR (BIAcore); protein G variant layer on gold thin film, anti-PSA antibody 0.5 ug/ml injected. Here is the method:
Then, antigens (Recombinant Human kallikrein 3/PSA, 0.5 μg/ml) were reacted with the antibodies. As a result, the change in the surface plasmon resonance signals of the untagged recombinant protein increased by 7 RU, the same change of the recombinant protein tagged with one cysteine residue increased by 49 RU, the same change of the recombinant protein tagged with two cysteine residues increased by 41 RU, and the same change of the recombinant protein tagged with three cysteine residues increased by 74 RU.
A gold thin film chip was treated with a mixed solution (65° C.) of 95% sulfuric acid and 30% aqueous hydrogen peroxide (volume ratio 3:1) for 30 minutes, and then the chip was washed sequentially with double distilled water, ethanol and double distilled water. Subsequently, the chip was dried with nitrogen gas and mounted on a BIA-core surface plasmon resonance sensor. 150 μl each of 200 μg/ml solutions of recombinant proteins tagged with one, two and three cysteine residues, respectively, and of an untagged recombinant protein (control) were introduced to the gold thin film surface of the mounted chip at a flow rate of 5 μl/min, so as to immobilize the proteins. After reacting the gold thin film surface and the aforementioned proteins, 100 μl of BSA (3 mg/ml) was introduced at a flow rate of 5 μl/min to prevent non-specific reactions. Subsequently, 100 μl of an antibody (0.5 μg/ml, anti-human Kallikrein 3/PSA antibody, R&D systems) was introduced at a flow rate of 5 μl/min, and the biosensor with immobilized antibody and 50 μl of an antigen (0.5 μg/ml, Recombinant Human Kallikrein 3/PSA) were allowed to react. Then, changes in the plasmon resonance signal was detected (FIG. 8).
Background: SPR reads the build-up and loss of mass on a sensor chip optically.

In a further test the target is T2, human IgG (Sigma) (human).
T2 construct: also called human antibody; antibody (100 µg/ml, human IgG, Sigma)
Put plainly: SPR (BIAcore); protein G variant layer on gold thin film, human IgG 100 ug/ml injected. Here is the method: A gold thin film chip was treated with a mixed solution (65° C.) of 95% sulfuric acid and 30% aqueous hydrogen peroxide (volume ratio 3:1) for 30 minutes, and then the chip was washed sequentially with double distilled water, ethanol and double distilled water. Subsequently, the chip was dried with nitrogen gas and mounted on a BIA-core surface plasmon resonance sensor. 150 μl each of 200 μg/ml solutions of recombinant proteins tagged with one, two and three cysteine residues, respectively, and of an untagged recombinant protein were introduced to the gold thin film surface of the mounted chip at a flow rate of 5 μl/min, so as to immobilize the proteins. After reacting the gold thin film surface and the aforementioned proteins, 100 μl of BSA (3 mg/ml) was introduced at a flow rate of 5 μl/min to prevent non-specific reactions. Subsequently, 100 μl of an antibody (100 μg/ml, human IgG, Sigma) was introduced at a flow rate of 5 μl/min to produce a biosensor in which protein G variant and the antibody were immobilized on a gold thin film, and the changes in the plasmon resonance signals were measured (FIG. 5).

Test [2] addresses T3, streptavidin-Cy3 from Streptomyces avidinii (S6420 SIGMA-ALDRICH) (Streptomyces avidinii, UniProt P22629 37-163, limits assumed, Cy3 label).
T3 construct: Control protein of the microarray experiment; also called control
Put plainly: microarray on maleimide glass carrying the protein G variant, fluorescence scanner. The method, then:
A glass surface was immersed in a piranha solution (sulfuric acid:hydrogen peroxide, 3:1 v/v) and allowed to react in an oven at 90° C. for 20 minutes. After the reaction, the glass surface was washed with water and ethanol, and then was immersed in ethanol containing 1% APTS ((3-Aminopropyl)trimethoxysilane, 09326, SIGMA-ALDRICH) for 15 to 20 minutes to react, so as to provide an aminated surface. After completion of the reaction, the glass surface was washed with ethanol, and subsequently heated in an oven at 100° C. until the time of use. The prepared aminated surface was immersed in a 10 mM solution of BMPS (N-[b-Maleimidopropyloxy]succinimide ester, 22298, PIERCE, USA) dissolved in DMSO (dimethyl sulfoxide, D2650, SIGMA-ALDRICH) to react for about 30 minutes. The maleimide groups provided on the final glass surface, which groups would be covalently bonded to SH groups, were reacted with Streptococcal protein G variants tagged with one, two or three cysteine residues on the glass surface to immobilize the protein. On the surface where a series of Streptococcal protein G variants were immobilized, an antibody labeled with a fluorescent labeling substance, monoclonal anti-biotin Cy3 (C5585, SIGMA-ALDRICH), and a control, streptavidin-Cy3 (streptavidin-Cy3 from Streptomyces avidinii, S6420 SIGMA-ALDRICH) were arranged into an array using a microarrayer, and then the degree of specific protein binding and the effect of non-specific binding were measured using a fluorescence scanner. As a result, no fluorescent signal of Streptavidin-Cy3 (1 mg/ml) was detected, and since the fluorescent signal increased with an increase in the concentration of the antibody, Monoclonal anti-biotin Cy3, it was confirmed that the antibody reactions with Streptococcal protein G variants tagged with one, two and three cysteine residues were specifically achieved. Also, when the antibody was reacted after allowing the Streptococcal protein G variants to react at the same concentration, the reaction occurred at a low concentration of the antibody with a high binding power. […]

B1: Streptococcal protein G variant tagged with three cysteine residues at the N-terminus (other)
chain: MCCCDDDDKLKGETTTEAVDAATAEKVFKQYANDNGVDGEWTYDDATKTFTVTETYKLVIDGKTLKGETTTKAVDAETAEKAFKQYADDDGVDGVWTYDDATKTFTVTEHHHHHH
notes: Immobilised by its thiol groups on gold film, gold nano-particles or maleimide glass; also called cys3-G; protein produced from plasmid pET-cys3-L-proteinG
With B1, the “change in surface plasmon resonance signal” value in test [1] is 491 RU. Besides, in the test with human IgG (Sigma), the “change in surface plasmon resonance signal” value is 4800 RU and the “fold increase of SPR signal change against the untagged recombinant protein” value (shortened to “fold increase of SPR signal change”) is about 4.8 times. Moreover, the binding result in test [2] was “no binding (tested: 1 mg/ml)”.

B2: Streptococcal protein G variant tagged with two cysteine residues at the N-terminus (other)
chain: MCCDDDDKLKGETTTEAVDAATAEKVFKQYANDNGVDGEWTYDDATKTFTVTETYKLVIDGKTLKGETTTKAVDAETAEKAFKQYADDDGVDGVWTYDDATKTFTVTEHHHHHH
notes: Immobilised by its thiol groups on gold film, gold nano-particles or maleimide glass; also called cys2-G; protein produced from plasmid pET-cys2-L-proteinG
Take B2: the “change in surface plasmon resonance signal” value in test [1] turned out to be 376 RU. In addition, in the test with human IgG (Sigma), the “change in surface plasmon resonance signal” value came out at 3200 RU and the “fold increase of SPR signal change” value was about 3.2 times. Moreover, the binding result in test [2] was “no binding (tested: 1 mg/ml)”.

B3: Streptococcal protein G variant tagged with one cysteine residue at the N-terminus (other)
chain: MCDDDDKLKGETTTEAVDAATAEKVFKQYANDNGVDGEWTYDDATKTFTVTETYKLVIDGKTLKGETTTKAVDAETAEKAFKQYADDDGVDGVWTYDDATKTFTVTEHHHHHH
notes: Immobilised by its thiol group on gold film, gold nano-particles or maleimide glass; also called cys1-G; protein produced from plasmid pET-cys1-L-proteinG
On to B3, for which the “change in surface plasmon resonance signal” value in test [1] came out at 472 RU; with human IgG (Sigma), 4000 RU. Further, the “fold increase of SPR signal change” value in the test with human IgG (Sigma) was about 4 times. Also, in test [2], the binding result is given as “no binding (tested: 1 mg/ml)”.
